From patent publication US20260241049A1, “Radiopharmaceutical Compositions Targeting Glypican-3 and Uses Thereof” (RayzeBio, Inc., priority 2023, published 2026)
Starred links: 1 amine or outer side, 2 acyl side, 3 side chain; linkers in the order of their positions; H or OH if unused. Positions of bridges follow the written chain, without caps; N, C: chain ends. Non-standard residues stand in square brackets, D forms with d. Primed or numbered codes have the meaning given here. *: point of attachment. DOTA‑Lu = DOTA-lutetium(175) amide on the side-chain amine, O=C([O-])CN1CCN(CC(=O)[O-])CCN(CC(=O)*)CCN(CC(=O)[O-])CC1.[175Lu+3]; MeA4paa = 3-(1-(carboxymethyl)piperidin-4-yl)-2-(methylamino)propanoic acid, CN([C@@H](CC1CCN(CC(=O)[*:3])CC1)C(=O)[*:2])[*:1]; MeHseMe″ = (2S)-4-methoxy-2-(methylamino)butanoic acid (N-methyl-O-methyl-L-homoserine), COCC[C@@H](C(=O)[*:2])N(C)[*:1]; Thr(Me)(3) = TMe, O-methyl-L-threonine, CO[C@H](C)[C@H](N[*:1])C(=O)[*:2]; Hgn = 2,6-diamino-6-oxohexanoic acid, NC(=O)CCC[C@H](N[*:1])C(=O)[*:2]; HseMe = 2-amino-4-methoxybutanoic acid, COCC[C@H](N[*:1])C(=O)[*:2]; Phe(4-(1-Me-pyrazol-4-yl)) = Cn1cc(-c2ccc(C[C@H](N)C(=O)O)cc2)cn1; NMeAla(isoquinolin-7-yl) = CN[C@@H](Cc1ccc2ccncc2c1)C(=O)O; 3Pal(6-Ph) = N[C@@H](Cc1ccc(-c2ccccc2)nc1)C(=O)O; Phe(4-COOH) = N[C@@H](Cc1ccc(C(=O)O)cc1)C(=O)O; NMe2Nal = CN[C@@H](Cc1ccc2ccccc2c1)C(=O)O; NMeI = CC[C@H](C)[C@H](NC)C(=O)O; NMeQ = CN[C@@H](CCC(N)=O)C(=O)O; NMeL = CN[C@@H](CC(C)C)C(=O)O; MeD = methyl-L-aspartic acid; NMeK = CN[C@@H](CCCCN)C(=O)O; NMeC = CN[C@@H](CS)C(=O)O; NMeA = CN[C@@H](C)C(=O)O

B1: Lu-C-1 (peptide)
peptide: Ac-[NMeK](DOTA‑Lu)[NMeI]D[NMeQ][Phe(4-COOH)]IIY[NMeAla(isoquinolin-7-yl)]G[3Pal(6-Ph)][NMeC]-NH2
modifications: bridge N-12; not fully specified (bridges); printed as MeK(DOTA-Lu)-MeI-D-MeQ-F4COO-I-I-Y-MeNal27N-G-3Py6Ph-MeC-NH2
B2: Macrocyclic peptide of Example 2-1 (SEQ ID No. 2) (peptide)
peptide: {CH2CO}-[NMeK](Ac)[NMeI]D[NMeQ][Phe(4-COOH)]II[Phe(4-COOH)][NMe2Nal]G[3Pal(6-Ph)][NMeC]-NH2
modifications: thioether N-12
SMILES: CC[C@H](C)[C@@H]1NC(=O)[C@H](Cc2ccc(C(=O)O)cc2)NC(=O)[C@H](CCC(N)=O)N(C)C(=O)[C@H](CC(=O)O)NC(=O)[C@H]([C@@H](C)CC)N(C)C(=O)[C@H](CCCCNC(C)=O)N(C)C(=O)CSC[C@@H](C(N)=O)N(C)C(=O)[C@H](Cc2ccc(-c3ccccc3)nc2)NC(=O)CNC(=O)[C@H](Cc2ccc3ccccc3c2)N(C)C(=O)[C@H](Cc2ccc(C(=O)O)cc2)NC(=O)[C@H]([C@@H](C)CC)NC1=O
B3: Macrocyclic peptide of Example 2-2 (SEQ ID No. 3) (peptide)
peptide: {CH2CO}-[NMeK](Ac)[NMeI]D[NMeQ][Phe(4-COOH)]II[Phe(4-COOH)][NMe2Nal]G[Phe(4-(1-Me-pyrazol-4-yl))][NMeC]-NH2
modifications: thioether N-12
SMILES: CC[C@H](C)[C@@H]1NC(=O)[C@H](Cc2ccc(C(=O)O)cc2)NC(=O)[C@H](CCC(N)=O)N(C)C(=O)[C@H](CC(=O)O)NC(=O)[C@H]([C@@H](C)CC)N(C)C(=O)[C@H](CCCCNC(C)=O)N(C)C(=O)CSC[C@@H](C(N)=O)N(C)C(=O)[C@H](Cc2ccc(-c3cnn(C)c3)cc2)NC(=O)CNC(=O)[C@H](Cc2ccc3ccccc3c2)N(C)C(=O)[C@H](Cc2ccc(C(=O)O)cc2)NC(=O)[C@H]([C@@H](C)CC)NC1=O
B4: Macrocyclic peptide of Example 2-5 (SEQ ID No. 8) (peptide)
peptide: {CH2CO}-[NMeQ][NMeQ]D[NMeQ][Phe(4-COOH)]II[Phe(4-COOH)][NMe2Nal]G[Phe(4-(1-Me-pyrazol-4-yl))][NMeC]-NH2
modifications: thioether N-12
SMILES: CC[C@H](C)[C@@H]1NC(=O)[C@H](Cc2ccc(C(=O)O)cc2)NC(=O)[C@H](CCC(N)=O)N(C)C(=O)[C@H](CC(=O)O)NC(=O)[C@H](CCC(N)=O)N(C)C(=O)[C@H](CCC(N)=O)N(C)C(=O)CSC[C@@H](C(N)=O)N(C)C(=O)[C@H](Cc2ccc(-c3cnn(C)c3)cc2)NC(=O)CNC(=O)[C@H](Cc2ccc3ccccc3c2)N(C)C(=O)[C@H](Cc2ccc(C(=O)O)cc2)NC(=O)[C@H]([C@@H](C)CC)NC1=O
B5: Macrocyclic peptide of Example 2-6 (SEQ ID No. 9) (peptide)
peptide: {CH2CO}-[NMeA][NMeQ]D[NMeQ][Phe(4-COOH)]II[Phe(4-COOH)][NMe2Nal]G[Phe(4-(1-Me-pyrazol-4-yl))][NMeC]-NH2
modifications: thioether N-12
SMILES: CC[C@H](C)[C@@H]1NC(=O)[C@H](Cc2ccc(C(=O)O)cc2)NC(=O)[C@H](CCC(N)=O)N(C)C(=O)[C@H](CC(=O)O)NC(=O)[C@H](CCC(N)=O)N(C)C(=O)[C@H](C)N(C)C(=O)CSC[C@@H](C(N)=O)N(C)C(=O)[C@H](Cc2ccc(-c3cnn(C)c3)cc2)NC(=O)CNC(=O)[C@H](Cc2ccc3ccccc3c2)N(C)C(=O)[C@H](Cc2ccc(C(=O)O)cc2)NC(=O)[C@H]([C@@H](C)CC)NC1=O
B6: Macrocyclic peptide of Example 2-7 (SEQ ID No. 10) (peptide)
peptide: {CH2CO}-[NMeQ][NMeL]D[NMeQ][Phe(4-COOH)]II[Phe(4-COOH)][NMe2Nal]G[Phe(4-(1-Me-pyrazol-4-yl))][NMeC]-NH2
modifications: thioether N-12
SMILES: CC[C@H](C)[C@@H]1NC(=O)[C@H](Cc2ccc(C(=O)O)cc2)NC(=O)[C@H](CCC(N)=O)N(C)C(=O)[C@H](CC(=O)O)NC(=O)[C@H](CC(C)C)N(C)C(=O)[C@H](CCC(N)=O)N(C)C(=O)CSC[C@@H](C(N)=O)N(C)C(=O)[C@H](Cc2ccc(-c3cnn(C)c3)cc2)NC(=O)CNC(=O)[C@H](Cc2ccc3ccccc3c2)N(C)C(=O)[C@H](Cc2ccc(C(=O)O)cc2)NC(=O)[C@H]([C@@H](C)CC)NC1=O
B7: Macrocyclic peptide of Example 2-8 (SEQ ID No. 11) (peptide)
peptide: {CH2CO}-[NMeQ][MeHseMe″]D[NMeQ][Phe(4-COOH)]II[Phe(4-COOH)][NMe2Nal]G[Phe(4-(1-Me-pyrazol-4-yl))][NMeC]-NH2
modifications: thioether N-12
SMILES: CC[C@H](C)[C@@H]1NC(=O)[C@H](Cc2ccc(C(=O)O)cc2)NC(=O)[C@H](CCC(N)=O)N(C)C(=O)[C@H](CC(=O)O)NC(=O)[C@H](CCOC)N(C)C(=O)[C@H](CCC(N)=O)N(C)C(=O)CSC[C@@H](C(N)=O)N(C)C(=O)[C@H](Cc2ccc(-c3cnn(C)c3)cc2)NC(=O)CNC(=O)[C@H](Cc2ccc3ccccc3c2)N(C)C(=O)[C@H](Cc2ccc(C(=O)O)cc2)NC(=O)[C@H]([C@@H](C)CC)NC1=O
B8: Macrocyclic peptide of Example 2-9 (SEQ ID No. 12) (peptide)
peptide: {CH2CO}-[NMeQ][HseMe]D[NMeQ][Phe(4-COOH)]II[Phe(4-COOH)][NMe2Nal]G[Phe(4-(1-Me-pyrazol-4-yl))][NMeC]-NH2
modifications: thioether N-12
SMILES: CC[C@H](C)[C@@H]1NC(=O)[C@H](Cc2ccc(C(=O)O)cc2)NC(=O)[C@H](CCC(N)=O)N(C)C(=O)[C@H](CC(=O)O)NC(=O)[C@H](CCOC)NC(=O)[C@H](CCC(N)=O)N(C)C(=O)CSC[C@@H](C(N)=O)N(C)C(=O)[C@H](Cc2ccc(-c3cnn(C)c3)cc2)NC(=O)CNC(=O)[C@H](Cc2ccc3ccccc3c2)N(C)C(=O)[C@H](Cc2ccc(C(=O)O)cc2)NC(=O)[C@H]([C@@H](C)CC)NC1=O
B9: Macrocyclic peptide of Example 2-10 (SEQ ID No. 13) (peptide)
peptide: {CH2CO}-[NMeQ][NMeQ][Hgn][NMeQ][Phe(4-COOH)]II[Phe(4-COOH)][NMe2Nal]G[Phe(4-(1-Me-pyrazol-4-yl))][NMeC]-NH2
modifications: thioether N-12
SMILES: CC[C@H](C)[C@@H]1NC(=O)[C@H](Cc2ccc(C(=O)O)cc2)NC(=O)[C@H](CCC(N)=O)N(C)C(=O)[C@H](CCCC(N)=O)NC(=O)[C@H](CCC(N)=O)N(C)C(=O)[C@H](CCC(N)=O)N(C)C(=O)CSC[C@@H](C(N)=O)N(C)C(=O)[C@H](Cc2ccc(-c3cnn(C)c3)cc2)NC(=O)CNC(=O)[C@H](Cc2ccc3ccccc3c2)N(C)C(=O)[C@H](Cc2ccc(C(=O)O)cc2)NC(=O)[C@H]([C@@H](C)CC)NC1=O
B10: Macrocyclic peptide of Example 2-11 (SEQ ID No. 14) (peptide)
peptide: {CH2CO}-[NMeQ][NMeQ]K(Ac)[NMeQ][Phe(4-COOH)]II[Phe(4-COOH)][NMe2Nal]G[Phe(4-(1-Me-pyrazol-4-yl))][NMeC]-NH2
modifications: thioether N-12
SMILES: CC[C@H](C)[C@@H]1NC(=O)[C@H](Cc2ccc(C(=O)O)cc2)NC(=O)[C@H](CCC(N)=O)N(C)C(=O)[C@H](CCCCNC(C)=O)NC(=O)[C@H](CCC(N)=O)N(C)C(=O)[C@H](CCC(N)=O)N(C)C(=O)CSC[C@@H](C(N)=O)N(C)C(=O)[C@H](Cc2ccc(-c3cnn(C)c3)cc2)NC(=O)CNC(=O)[C@H](Cc2ccc3ccccc3c2)N(C)C(=O)[C@H](Cc2ccc(C(=O)O)cc2)NC(=O)[C@H]([C@@H](C)CC)NC1=O
B11: Macrocyclic peptide of Example 2-12 (SEQ ID No. 15) (peptide)
peptide: {CH2CO}-[NMeQ][NMeQ]D[MeA4paa][Phe(4-COOH)]II[Phe(4-COOH)][NMe2Nal]G[Phe(4-(1-Me-pyrazol-4-yl))][NMeC]-NH2
modifications: thioether N-12
SMILES: CC[C@H](C)[C@@H]1NC(=O)[C@H](Cc2ccc(C(=O)O)cc2)NC(=O)[C@H](CC2CCN(CC(=O)O)CC2)N(C)C(=O)[C@H](CC(=O)O)NC(=O)[C@H](CCC(N)=O)N(C)C(=O)[C@H](CCC(N)=O)N(C)C(=O)CSC[C@@H](C(N)=O)N(C)C(=O)[C@H](Cc2ccc(-c3cnn(C)c3)cc2)NC(=O)CNC(=O)[C@H](Cc2ccc3ccccc3c2)N(C)C(=O)[C@H](Cc2ccc(C(=O)O)cc2)NC(=O)[C@H]([C@@H](C)CC)NC1=O
B12: Macrocyclic peptide of Example 2-13 (SEQ ID No. 16) (peptide)
peptide: {CH2CO}-[NMeQ][NMeQ]D[MeD][Phe(4-COOH)]II[Phe(4-COOH)][NMe2Nal]G[Phe(4-(1-Me-pyrazol-4-yl))][NMeC]-NH2
modifications: thioether N-12
B13: Macrocyclic peptide of Example 2-15 (SEQ ID No. 18) (peptide)
peptide: {CH2CO}-[NMeQ][NMeQ]D[NMeQ][Phe(4-COOH)][Thr(Me)(3)]I[Phe(4-COOH)][NMe2Nal]G[Phe(4-(1-Me-pyrazol-4-yl))][NMeC]-NH2
modifications: thioether N-12

These binders were tested against T1, human Glypican3 (R&D systems, catalog number: 2119-GP) (human, UniProt P51654 25-559, limits assumed) (assay: SPR (Biacore T200), Method B-1: human Glypican3 amine-coupled to CM3 chip, peptide as analyte).
T1 construct: Bought recombinant protein, amine-coupled to the chip in Method B-1; also called GPC3; hGPC3
Method: A CM3 sensor chip (Cytiva) was inserted into a Biacore T200 (Cytiva), primed three times with a running buffer: HBS-P+, pH 7.4 (Cytiva), and equilibrated at a flow rate of 30 μL/min. Ligand immobilization was performed at a flow rate of 10 μL/min. 50 μL each of 60 mM EDC solution (Cytiva) and 650 mM NHS solution (Cytiva) were mixed, and then reacted at a flow rate of 10 μL/min for 420 seconds, 150 μL of 0.2 μM human Glypican3 (R&D systems, catalog number: 2119-GP) solution which was prepared by diluting with 10 mM acetic acid solution (pH 5.0), was reacted at a flow rate of 10 μL/min for 420 seconds, and Glypican3 was immobilized on the CM3 sensor chip. After immobilization, 1.0 M ethanolamine aqueous solution (Cytiva) was allowed to react for 420 seconds at a flow rate of 10 μL/min for capping. A peptide lysate prepared to 10 mM in DMSO solution was diluted with running buffer to a final concentration of 10 μM peptide lysate. […] Using the above samples, peptide kinetics for Glypican3 was obtained by SPR measurement. Kinetics evaluation of Glypican3 was performed by SPR measurements at a flow rate of 10 μL/min, setting the association time to 120 seconds and the disassociation time to 600 seconds.
The obtained data by Method B-1, Method B-2, Method B-3 and Method B-4 were analyzed by follow. Single Cycle Kinetics was used as the kinetics evaluation model, and curve fitting was performed using Biacore T200 Evaluation Software Version 3.0 (Cytiva).

Binder | Kd [nM]
B1 | 0.29
B2 | 0.5
B3 | 1.5
B4 | 2.6
B5 | 2.7
B6 | 6.8
B7 | 1.3
B8 | 7.2
B9 | 2.2
B10 | 2.5
B11 | 2.9
B12 | 2.8
B13 | 1.8
